Laboratory results taken from the DeepSol protein solubility set.

Assay: soluble on expression in E. coli; label from the status in PepcDB or PDB records

Sequence | soluble on expression in E. coli
MYVGYLGPSGSFTHNAALKAFPEASLVSLGTITEVIKSYEEGRVDYAVIPVENSIEGSVHESLDYLFHQADIRAVAEIVQPIKQQLMASKHHAKIEKIFSHPQAIAQGKKYIKDHFPHAKIETTASTAFAARYVADNPDQPYAAIAPHAAAKEYGLEILAKDIQEIEKNYTRFWLLGSTVP | not soluble
MSYDRVKDFDLPELAVHLQPHGAVMIDRKSMFYFRLSGRGAQLAFLLSKNKNLHKTARIWEIMKKEEMSADQLKEELSAHPFTEAWTEGLLDQPLHVSGSLDSYLPISCTLQLTNACNLSCSFCYASSGKPYPEELSSEQWILVMQKLAAHGVADITLTGGEAKLIKGFKELVVVASSLFTNVNVFSNGLNWRDEEVELLSHLGNVSVQISIDGMDNTHDQLRGRKGGFKESMNTIKKLSEANIPVIVAMTINESNADEVSDVVEQCANAGAFIFRAGKTLSVGRATEGFKALDIDFEEMVQIQLREARHKWGDRLNIIDWEHEESSFTTDFCTPGYLAWYIRADGYVTPCQLEDLPLGHILEDSMADIGSPARLLQLKCEAKNCKCIGKIELSEPDLPFQKEVKAGIQE | not soluble
MEIIKISPRGYCYGVIDAMVIAKNASLDPNLPRPIHILGMIVHNKHVTDAFESIGIYTVDGANREEILDKITTGTVIFTAHGVSPSVKAKAVAKGLTTIDATCPDVLHTYNLILEKQAAGYEIIYIGKKGHPEPEGAYGTAPDVVHLVETKADIDALSLLSDKIFVTNQTTMSKWDVADLMHYIKGKFPKAIQHQEICMATQVRQEAVALQAKDADLTIVVGDPRSNNTARLAQVSIEKAGTKAYRIADITELDIEWIKDAKKVAVTAGASTPTQLVREVLLFLEQFDAADKTTWKREHNQDFERILPKTKNKYMAEKRSQRLAHLKNGGSLEHHHHHH | not soluble
MFKKIATILGSTLFGTVLFAKVKEKRSYKSFLQEKMIRISGMKKTFESIDDAKKALNETKYQTAGKYNGTTYEFKHKVQIRDYYGSLVYVVNDHGLPDQRTVLYVHGGAWFQDPLENHFEYLDLLVDALDARVIMPVYPKIPHRDYRTTFELLTKIYKRLLTKIDEPENLVIIGDSAGGQIALAFAQMLKKEQLSQPGHIVLISPVLDATFKNPEARKYEKEDPMLGIDGSKYLVELWAGDAPLDDYKMSPMNGDLEGLGHITLTVGTKETLYPDAVKFSHMLNDKGIKHQFIPGYNLFHIYPLFPIPERQRFLEQLKKIIVTKEL | not soluble
GPRRTRTTFTSSQIAELEQHFLQGRYLTAPRLADLSAKLALGTAQVKIWFKNRRRRHKIQSDQHKDQS | soluble
MGSDKIHHHHHHMYQIQIRIWFNFISKNKHHMLGTMSDSYDFFLSMSEITFALDPKYEFDKDIGCVLSLIKNTKELRFRINQYINKYKNKSPSLNRLNTFINTLEENENFYLLPAIENVSQTQLIKLQTSLSLVHLDELGKDAYIKSFNSNFSDFIDQYSMNGIDPKEVKGKKKIGEGFKANRVCRFCNNKNEKPTTFAKEAHAISESLGNKKIILNEECDLCNEYFDQNIERDIDTYLKLYSSFFRVKNKDNKVSKIKGKNFSFEYINTTIDGHDRHIDFVLAHTPTNSESCNSDSEPPKNVDLCFHQKIRKQNIYKSLVKFALSVIHDRKDLSEFNKAIEWIKSPTKFYEQLPKIAILKNYQFYCTEPALIVYISKNKKQGLPYAVGEFHYTFLTYIFIIPLFKSDEVEFSQQNNFDDFIKFFPQFKRMDEWSFEDFSDYEEKEFVLNMILSQRDEG | not soluble
MYRGEPGTRAHQQEEHVVDSSPLEPSSSLEDTRVWGHVGVAAAPRLLAQALPKLRCKLPKPQAPLAGHEAQQPRGGLILPLALASELMESSTVQWLSYKQPQVVPVVPQLPRVLWQVQPLEKPGSQSFRNNQPSILLKTRLRFSITRISLFNYHR | soluble
MSQKTDAPLESYEVNGATIAVLPEEIDGKICSKIIEKDCVFYVNMKPLQIVDRSCRFFGSSYAGRKAGTYEVTKISHKPPIMVDPSNQIFLFPTLSSTRPQCGWISHVHVKEFKATEFDDTEVTFSNGKTMELPISYNSFENQVYRTAWLRTKFQDRIDHRVPKRQEFMLYPKEERTKMIYDFILRELGERYLEHHHHHH | not soluble
MGSDKIHHHHHHMNGKTIILANPRGFCAGVDRAISIVERALEEFGAPVYVRHEVVHNKFVVDNLREKGAVFIEDLAEVPPGATLVYSAHGVSKAVQQEAAERGFRVFDATCPLVTKVHKEVARLDAQDCEIIMIGHKGHAEVEGTMGQLAPGKMLLVETVGDVAKLEVRNPDKLAYVSQTTLSVDETKDIIAALNARFPNIRNPHKEDICYATTNRQTAVKELAEQCDIVIVVGSPNSSNSNRLREVAASRGIDAYMVDNASYLQRTWFEGKSKVGVTAGASAPEVLVREVLATIRGWGHETVREGGGAEESIVFVLPKELRREGETKPDLCKR | not soluble
MNSLSTEQLGIGYGDRVIVEDLNISIPKGKITTLIGPNGCGKSTILKTMSRIMRSHAGAVYLNGKAIHKMSTKDIAKDMAILPQTPEAPSGLTVHELVSYGRFPHQSGFGRLNDEDRRIIKWALEETGMAEYAERPIEALSGGQRQRVWIAMALAQGTELLLLDEPTTYLDLAHQLEILQLLDRLNKEQGRTILMVIHDLNHAARFSHYMIALKKGTVIKEGTALEVMTPDILKQVFQIDAEIVTDPRTNKPVCLTYDLIKNEKELVTV | not soluble
MGSDKIHHHHHHLNQERFDYRTGILASPSEVDAAEWNALLAQQPQPTPFLRHEFLSALHATRCAVADTGWAPQFVTLTDPRTDKLVAAAPVYLKGHSYGEYVFDWAWADAYKRNGLPYYPKLLCAVPFTPVQGNRLLSADTHALRHLAATLMAFAEQADVSSLHVLFPTETEANALTEMGMMQREGVQFHWLNDGYRDFDDFLSTLEQKKRKNIRAERRKVHEAGVTMRRIRGEDIQDADWRFFSKCYRQTYREHFSSPYLNLDFFRMIGESMPENLLLVIAEYEGKPIASSLVVYQRDAKTGGTLYGRYWGALEHVPCLHFETAYYQPLEFCIEEKLGAFEGGAQGEHKMARGFLPTVTRSAHWLAHPAFADAVGHFLDNEKNSIHAYVDELREHNPFKG | not soluble
MKRCLAILAFAALLFPALPAYSAPARQPSSNTPPPDIVMHPEYARTIGRLAYVWGWPMVNMLNRNARITKAPHPGLLGGILPAAPRGQVGMLHDYILPAETFVTCPNQDVVYGLGFFSLDTEPVIAQVPDFGDRFWVYALYDHRTNQFGELGKPYRSKPGFYLLVGPNWKGQKPAGVQAIIRSPTALANAIPRIFMDDTDEDRQAIQKKINQVVFYPLKDFDGKMKSLDWQSTADIPNPGADSANAGETRWVVPEEFFNQFGQVLDMVPPLPGEEAMYVQFRSMMDAAAKDPAIKNALVEVAKETEEQVIAPFFQWKHNGKPAGNNWNRSVNNAQTGLDYFNRTGTAKSNMFDNRPNETQYFYTDFDSTGAVLDGGKRYEITFASGQLPPVKGFWSLTLYNKHHLFSPNDLNRYSLGTKNKNLVRGPDGSLTIHVGPTSPGKDKEANWLPSPREPISLYIRAYWGEQAILDGTWKPPAVKKIELEHHHHHH | not soluble
MPQDYISYIRSKVGHDKIILNFAGGILTNDDGKVLMQLRGDKKTWTIPGGTMELGESSLETCKREFLEETGIEVEAVRLLNVYTHFEEVYPNGDAVQTIVFIYELTAVSDMAIDNFHNEETLKLQFFSHEEIAELESVSAKHRLMLEEYFSDSFAMGH | not soluble
MSNDETVEKVTQQVSELKSTDVKEQVVTPWDVEGGVDEQGRAQNIDYDKLIKQFGTKPVNEETLKRFKQVTGREPHHFLRKGLFFSERDFTKILDLYEQGKPFFLYTGRGPSSDSMHLGHMIPFVFTKWLQEVFDVPLVIELTDDEKFLFKHKLTINDVKNFARENAKDIIAVGFDPKNTFIFSDLQYMGGAFYETVVRVSRQITGSTAKAVFGFNDSDCIGKFHFASIQIATAFPSSFPNVLGLPDKTPCLIPCAIDQDPYFRVCRDVADKLKYSKPALLHSRFFPALQGSTTKMSASDDTTAIFMTDTPKQIQKKINKYAFSGGQVSADLHRELGGNPDVDVAYQYLSFFKDDDVFLKECYDKYKSGELLSGEMKKLCIETLQEFVKAFQERRAQVDEETLDKFMVPHKLVWGEKERLVAPKPKTKQEKKHHHHHH | soluble
QFLQKQHFLILGLAKSGYAAASILHEKGIYVAVNDQKPFEENEPAQKLSEKGIEVVCGEHPVSLFDQHQITILIKNPGIPYENIMVQEAEKRGIPVW | not soluble
MKLTLEEGTSLVGYVRNVIKQYLKGEEPDIQKYPDKFNNVFGVFVSLHTHPEHDLRGCIGIPEPTMSLIDAIKETSISAAVHDPRFQPLKHSELKNTIIEVSVLTPPEDVEVEDSMEYLEKLEVGRDGLIIEFGPYRGLLLPQVATEYNWDTKQFLSNLCLKAGLPTTAWIEYDVKIKSFQAQVFEELIPNGPVVEKSTYTGCLEHHHHHH | soluble
QIVDATEALMHDQNSQRITLNMVNSLALHWWIPRMPRLQTYAPQLDVRLSNLSGRFNLEQEGVDAALVHGNPEEWQDYYCEKLSEDELVLVCSPDLIDHSNPVNLSDILKTYPLIEVTNERRKHDWQVWSDATGVARPKNKKPITFNMSIQAVQATTRRLGVLVTHRLFVKDDIKYGQLIELGEPVINPNQQLYFVCPPHKLKQESFHLLRSWLKQEFA | soluble
MGQLVDGVWHDTWYETKSTGGHFKRSESAFRNWVTPDGAPGLTGKGGFPAQSGRYHLYVSLACPWAHRTLLMRQLKGLEDHIAVSVVHPLMLDHGWTFGTDFEAATGDSLYQHEFLYQLYLHAKPDYSGRVTVPVLWDTEQHTVVSNESADIIRMLNSAFDGVGAIAGDYYPEALRTQIDELNSWIYDKVNNGVYKAGFATTQSAYDESASTVFAALSDLETILAKQRYLTGEQLTEADLRLWTTLIRFDPVYHTHFKCDKYRLSDYPNLFGFLRDIYQMPGIAETVDMAHIRHHYYRSHGLEHHHHHH | not soluble
MSTSEKRKGMQTDMPELQAMISQRIQEQNYREVLKGVTAFPWCTDDPCVFRTAAGNLWIAVGHVNRKSEVPKFSYKNFLCAYLLGNAEDGVAAYLDLQAAAWKGVELVMFSSHADGLSALYGDGRANDRDLLYRFFGRNYVFAVGFRKKEEKEQASAGDKIFIASVDAVGFGEIDKDGKLAVINKIMSYEQFFDDEDLKPMWGALAVKLFILKCNGYRESAKDRKALDILLHDMMKLCKSMELTAGLDDQKRKHPESAGINPQMALLKNEAMVKVHNGMDEKVKSNLPLLEWAVNHLPAKLLQEFGTFVESVPQIKEPTAYDNLMSLESVLKEMDRLFKKAAEEENLSLTKNSMTDG | not soluble
MSLGDVVMNERELILAIETSCDETSAAVIENGTTILSNVVSSQIDSHKRFGGVVPEIASRHHVEQITVIVEEAMHEAGVDFADLAAVAVTEGPGLVGALLIGVNAAKAIAFAHQLPLIGVHHIAGHIYANRLLKELEFPLLALVVSGGHTELIYMENHGEFEVIGETRDDAVGEAYDKVARTLGLPYPGGPHIDRLAVNGEDTLQFPRAWLEPDSFDFSFSGLKSAVINTLHNAKQRGENVQAEDVAASFQASVIDVLVTKTKKAAEEYKVRQVLLAGGVAANKGLRTALEEAFFKEPIDLVIPPLSLCTDNAAMIGAAASIKFKQQTFAGMDLNGQPSLELENDEGHHHHHH | soluble
MSVFAFSFCAVVIMPNLLAMSDEETRGRQAMVANFVKDNQKTIRNGKGDKWMSNFLKTQNLTFHRSLSSPSAMSDSSSQNLVVLADVGTAACASGWTRYDLTGMCYQQSKKTMNWYQGEDYCWNLRPGAHSASVHSQEEAKWLNSLYRDKKNGGQMDSWIGLRRDCDNVTYIWTDGSPTDCLWWQPDYPKSEFAEFSCVTIWETDWLYDNPAYIPGQYDDMKECSDDGSNTPTTTTTMQTTTPSTTSTPTTTSTTTTTSASTTTISTTKPPTTQIDIEKCTSNCPVGWIYFGGLCYSKIQGPGRFVDFNSECTRLGGKLGEVSGADGNEALRLALTSNNGNKILDEAWIQHIGSYNNVASGYVGTAGSCYTVLKNSQTN | not soluble
